# Results from patent US20250320295A1 (INHIBRX BIOSCIENCES, published 2025).
# What was measured:
# Human CD8a [1] = target: T1, Human CD8a (human, UniProt P01732 22-235); experiment: flow cytometry, isolated human T cells, PI-CD4- gate (table title says transfected HEK293F cells)
# T1 construct: also called CD8α; human CD8a-FL
# Procedure: Binding of polypeptides comprising a humanized CD8a-binding VHH domain, an Fc region, and, in certain polypeptides, a mutated, attenuated IL-2 fused to the C-terminus of the Fc region, was assessed by flow cytometry on isolated human T cells. […] Complexes or polypeptides that are not labeled “KiH” form homodimers under physiologic conditions. The isolated cells were plated in a 96-well plate at 50,000 cells per well in FACS buffer (PBS, 1% BSA, 0.1% NaN₃, pH 7.4). Test polypeptides were then diluted to 2× the final concentration of 200 nM, and a 5-fold serial dilution was made. FACS buffer with no polypeptide was used as a secondary antibody-only control. Test polypeptides were added to an equal volume of cells, and assay plates were incubated for 30 minutes at 4° C. After washing twice with 150 μL of FACS buffer per well, the cells were resuspended in FACS buffer with a fluorescently-labeled anti-human IgG antibody diluted 1:1000 to detect CD8α binding and fluorescently labeled anti-CD4 antibody (clone OKT4, 1:200). Propidium iodide (PI) was added at 1:2000 to distinguish live cells from dead cells. Assay plates were incubated at 4° C. for 30 minutes. After one additional wash with 150 μL of FACS buffer, polypeptide bound to CD8α was detected by flow cytometry on PI-CD4− and on PI-CD4+ cells. Binding was measured on these cell populations as mean fluorescence intensity (MFI) at 647 nm. Flow cytometric detection was performed on an ACEA Biosciences Novocyte-Quanteon Flow Cytometer. The data were plotted and analyzed using GraphPad Prism analysis software.
# Human CD8a [2] = target: T1, Human CD8a; experiment: flow cytometry, HEK293F cells transfected with human CD8a (citrine+ gate)
# Procedure: Binding of polypeptides comprising a humanized CD8a-binding VHH domain, an Fc region, and, in certain polypeptides, a mutated, attenuated IL-2 fused to the C-terminus of the Fc region, was assessed by flow cytometry on HEK293F cells transiently transfected with a plasmid encoding human CD8α or CD8b chains. […] Complexes or polypeptides that are not labeled “KiH” form homodimers under physiologic conditions. The transfected cells were plated in a 96-well plate at 50,000 cells per well in FACS buffer (PBS, 1% BSA, 0.1% NaN₃, pH 7.4). Test polypeptides were then diluted to 2× the final concentration of 500 nM, and a 6-fold serial dilution was made. FACS buffer with no polypeptide was used as a secondary antibody-only control. Test polypeptides were added to an equal volume of cells, and assay plates were incubated for 30 minutes at 4° C. After washing twice with 150 μL of FACS buffer per well, the cells were resuspended in FACS buffer with a fluorescently-labeled anti-human Fc antibody diluted 1:1000 to detect CD8 binding. Assay plates were incubated at 4° C. for 30 minutes. After one additional wash with 150 μL of FACS buffer, polypeptide bound to CD8 was detected by flow cytometry on cells positive for the transfection marker citrine. Binding was measured on these cell populations as mean fluorescence intensity (MFI) at 647 nm. Flow cytometric detection was performed on an IntelliCyt iQue Screener Plus. The data were plotted and analyzed using GraphPad Prism analysis software.
# T1 sequence (P01732 22-235): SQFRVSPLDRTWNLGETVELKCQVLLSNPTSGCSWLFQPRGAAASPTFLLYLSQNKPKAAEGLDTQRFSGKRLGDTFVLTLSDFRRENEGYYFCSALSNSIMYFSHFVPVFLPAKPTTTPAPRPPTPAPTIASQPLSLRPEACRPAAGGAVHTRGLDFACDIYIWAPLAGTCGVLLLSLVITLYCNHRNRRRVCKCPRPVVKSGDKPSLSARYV
binder,measurement,setting,value
"hzB7v30-xELL-KiH Fc-IL-2 mutant (Fc fusion, Knob-in-hole heterodimer: VHH on the N-terminus of each Fc, mutant IL-2 only on the knob Fc; not shown: mutant, attenuated IL-2 fused to the C-terminus of the knob Fc) chain 1: QVQLVQSGGGEVQPGGSLRLSCAASGFTFDDYAMSWVRQAPGKGLEWVSTITWDAGGTDYAAPVKGRFTISRDNAKNTVYLQMSSLRAEDTAVYYCAKGSPELQYDTWGQGTLVTVKPDKTHTCPPCPAPGGPSVFLFPPKPKDTLMISRTPEVTCVVVDVSHEDPEVKFNWYVDGVEVHNAKTKPREEQYNSTYRVVSVLTVLHQDWLNGKEYKCKVSNKALPAPIEKTISKAKGQPREPQVCTLPPSRDELTKNQVSLSCAVKGFYPSDIAVEWESNGQPENNYKTTPPVLDSDGSFFLVSKLTVDKSRWQQGNVFSCSVMHEALHNRYTQKSLSLSPGK chain 2: QVQLVQSGGGEVQPGGSLRLSCAASGFTFDDYAMSWVRQAPGKGLEWVSTITWDAGGTDYAAPVKGRFTISRDNAKNTVYLQMSSLRAEDTAVYYCAKGSPELQYDTWGQGTLVTVKPDKTHTCPPCPAPGGPSVFLFPPKPKDTLMISRTPEVTCVVVDVSHEDPEVKFNWYVDGVEVHNAKTKPREEQYNSTYRVVSVLTVLHQDWLNGKEYKCKVSNKALPAPIEKTISKAKGQPREPQVYTLPPCRDELTKNQVSLWCLVKGFYPSDIAVEWESNGQPENNYKTTPPVLDSDGSFFLYSKLTVDKSRWQQGNVFSCSVMHEALHNHYTQKSLSLSPG",Bmax (MFI),Human CD8a [1],247000 MFI
same,Kd,Human CD8a [1],0.0943 nM
"hzB7v33-xELL-KiH Fc-IL-2 mutant (Fc fusion, Knob-in-hole heterodimer: VHH on the N-terminus of each Fc, mutant IL-2 only on the knob Fc; not shown: mutant, attenuated IL-2 fused to the C-terminus of the knob Fc) chain 1: QVQLVQSGGGEVQPGGSLRLSCAASGFTFDDYAMSWVRQAPGKGLEWVSTITWSAEGTYYAAPVKGRFTISRDNAKNTVYLQMSSLRAEDTAVYYCAKGSPELQYDTWGQGTLVTVKPDKTHTCPPCPAPGGPSVFLFPPKPKDTLMISRTPEVTCVVVDVSHEDPEVKFNWYVDGVEVHNAKTKPREEQYNSTYRVVSVLTVLHQDWLNGKEYKCKVSNKALPAPIEKTISKAKGQPREPQVCTLPPSRDELTKNQVSLSCAVKGFYPSDIAVEWESNGQPENNYKTTPPVLDSDGSFFLVSKLTVDKSRWQQGNVFSCSVMHEALHNRYTQKSLSLSPGK chain 2: QVQLVQSGGGEVQPGGSLRLSCAASGFTFDDYAMSWVRQAPGKGLEWVSTITWSAEGTYYAAPVKGRFTISRDNAKNTVYLQMSSLRAEDTAVYYCAKGSPELQYDTWGQGTLVTVKPDKTHTCPPCPAPGGPSVFLFPPKPKDTLMISRTPEVTCVVVDVSHEDPEVKFNWYVDGVEVHNAKTKPREEQYNSTYRVVSVLTVLHQDWLNGKEYKCKVSNKALPAPIEKTISKAKGQPREPQVYTLPPCRDELTKNQVSLWCLVKGFYPSDIAVEWESNGQPENNYKTTPPVLDSDGSFFLYSKLTVDKSRWQQGNVFSCSVMHEALHNHYTQKSLSLSPG",Kd,Human CD8a [1],0.139 nM
"hzB7v34-xELL-KiH Fc-IL-2 mutant (Fc fusion, Knob-in-hole heterodimer: VHH on the N-terminus of each Fc, mutant IL-2 only on the knob Fc; not shown: mutant, attenuated IL-2 fused to the C-terminus of the knob Fc) chain 1: QVQLVQSGGGEVQPGGSLRLSCAASGFTFDDYAMSWVRQAPGKGLEWVSTITWSAGGTDYAAPVKGRFTISRDNAKNTVYLQMSSLRAEDTAVYYCAKGSPELQYDTWGQGTLVTVKPDKTHTCPPCPAPGGPSVFLFPPKPKDTLMISRTPEVTCVVVDVSHEDPEVKFNWYVDGVEVHNAKTKPREEQYNSTYRVVSVLTVLHQDWLNGKEYKCKVSNKALPAPIEKTISKAKGQPREPQVCTLPPSRDELTKNQVSLSCAVKGFYPSDIAVEWESNGQPENNYKTTPPVLDSDGSFFLVSKLTVDKSRWQQGNVFSCSVMHEALHNRYTQKSLSLSPGK chain 2: QVQLVQSGGGEVQPGGSLRLSCAASGFTFDDYAMSWVRQAPGKGLEWVSTITWSAGGTDYAAPVKGRFTISRDNAKNTVYLQMSSLRAEDTAVYYCAKGSPELQYDTWGQGTLVTVKPDKTHTCPPCPAPGGPSVFLFPPKPKDTLMISRTPEVTCVVVDVSHEDPEVKFNWYVDGVEVHNAKTKPREEQYNSTYRVVSVLTVLHQDWLNGKEYKCKVSNKALPAPIEKTISKAKGQPREPQVYTLPPCRDELTKNQVSLWCLVKGFYPSDIAVEWESNGQPENNYKTTPPVLDSDGSFFLYSKLTVDKSRWQQGNVFSCSVMHEALHNHYTQKSLSLSPG",Bmax (MFI),Human CD8a [1],76100 MFI
same,Kd,Human CD8a [1],4.05 nM
"hzB7v28-xELL-P329G-KiH Fc-IL-2 mutant (Fc fusion, Knob-in-hole heterodimer: VHH on the N-terminus of each Fc, mutant IL-2 only on the knob Fc; not shown: mutant, attenuated IL-2 fused to the C-terminus of the knob Fc) chain 1: QVQLVQSGGGEVQPGGSLRLSCAASGFTFDDYAMSWVRQAPGKGLEWVSTITWDAEGTDYAAPVKGRFTISRDNAKNTVYLQMSSLRAEDTAVYYCAKGSPELQYDTWGQGTLVTVKPDKTHTCPPCPAPGGPSVFLFPPKPKDTLMISRTPEVTCVVVDVSHEDPEVKFNWYVDGVEVHNAKTKPREEQYNSTYRVVSVLTVLHQDWLNGKEYKCKVSNKALGAPIEKTISKAKGQPREPQVCTLPPSRDELTKNQVSLSCAVKGFYPSDIAVEWESNGQPENNYKTTPPVLDSDGSFFLVSKLTVDKSRWQQGNVFSCSVMHEALHNRYTQKSLSLSPG chain 2: QVQLVQSGGGEVQPGGSLRLSCAASGFTFDDYAMSWVRQAPGKGLEWVSTITWDAEGTDYAAPVKGRFTISRDNAKNTVYLQMSSLRAEDTAVYYCAKGSPELQYDTWGQGTLVTVKPDKTHTCPPCPAPGGPSVFLFPPKPKDTLMISRTPEVTCVVVDVSHEDPEVKFNWYVDGVEVHNAKTKPREEQYNSTYRVVSVLTVLHQDWLNGKEYKCKVSNKALGAPIEKTISKAKGQPREPQVYTLPPCRDELTKNQVSLWCLVKGFYPSDIAVEWESNGQPENNYKTTPPVLDSDGSFFLYSKLTVDKSRWQQGNVFSCSVMHEALHNHYTQKSLSLSPG",Bmax (MFI),Human CD8a [2],1.37e+07 MFI
same,Kd,Human CD8a [2],2.84 nM
"hzB7v37-xELL-KiH Fc-IL-2 mutant (Fc fusion, Knob-in-hole heterodimer: VHH on the N-terminus of each Fc, mutant IL-2 only on the knob Fc; not shown: mutant, attenuated IL-2 fused to the C-terminus of the knob Fc) chain 1: QVQLVQSGGGEVKPGGSLRLSCAASGFTFDDYAMSWVRQAPGKGLEWVSTITWDAGGTYYAAPVKGRFTISRDNAKNTVYLQMSSLRAEDTAVYYCAKGSPELQYDTWGQGTLVTVKPDKTHTCPPCPAPGGPSVFLFPPKPKDTLMISRTPEVTCVVVDVSHEDPEVKFNWYVDGVEVHNAKTKPREEQYNSTYRVVSVLTVLHQDWLNGKEYKCKVSNKALPAPIEKTISKAKGQPREPQVCTLPPSRDELTKNQVSLSCAVKGFYPSDIAVEWESNGQPENNYKTTPPVLDSDGSFFLVSKLTVDKSRWQQGNVFSCSVMHEALHNRYTQKSLSLSPGK chain 2: QVQLVQSGGGEVKPGGSLRLSCAASGFTFDDYAMSWVRQAPGKGLEWVSTITWDAGGTYYAAPVKGRFTISRDNAKNTVYLQMSSLRAEDTAVYYCAKGSPELQYDTWGQGTLVTVKPDKTHTCPPCPAPGGPSVFLFPPKPKDTLMISRTPEVTCVVVDVSHEDPEVKFNWYVDGVEVHNAKTKPREEQYNSTYRVVSVLTVLHQDWLNGKEYKCKVSNKALPAPIEKTISKAKGQPREPQVYTLPPCRDELTKNQVSLWCLVKGFYPSDIAVEWESNGQPENNYKTTPPVLDSDGSFFLYSKLTVDKSRWQQGNVFSCSVMHEALHNHYTQKSLSLSPG",Bmax (MFI),Human CD8a [1],272000 MFI
same,Kd,Human CD8a [1],0.0884 nM
"hzB7v39-xELL-KiH Fc-IL-2 mutant (Fc fusion, Knob-in-hole heterodimer: VHH on the N-terminus of each Fc, mutant IL-2 only on the knob Fc; not shown: mutant, attenuated IL-2 fused to the C-terminus of the knob Fc) chain 1: QVQLVQSGGGEVKPGGSLRLSCAASGFTFDDYAMSWVRQAPGKGLEWVSTITWSAEGTYYAAPVKGRFTISRDNAKNTVYLQMSSLRAEDTAVYYCAKGSPELQYDTWGQGTLVTVKPDKTHTCPPCPAPGGPSVFLFPPKPKDTLMISRTPEVTCVVVDVSHEDPEVKFNWYVDGVEVHNAKTKPREEQYNSTYRVVSVLTVLHQDWLNGKEYKCKVSNKALPAPIEKTISKAKGQPREPQVCTLPPSRDELTKNQVSLSCAVKGFYPSDIAVEWESNGQPENNYKTTPPVLDSDGSFFLVSKLTVDKSRWQQGNVFSCSVMHEALHNRYTQKSLSLSPGK chain 2: QVQLVQSGGGEVKPGGSLRLSCAASGFTFDDYAMSWVRQAPGKGLEWVSTITWSAEGTYYAAPVKGRFTISRDNAKNTVYLQMSSLRAEDTAVYYCAKGSPELQYDTWGQGTLVTVKPDKTHTCPPCPAPGGPSVFLFPPKPKDTLMISRTPEVTCVVVDVSHEDPEVKFNWYVDGVEVHNAKTKPREEQYNSTYRVVSVLTVLHQDWLNGKEYKCKVSNKALPAPIEKTISKAKGQPREPQVYTLPPCRDELTKNQVSLWCLVKGFYPSDIAVEWESNGQPENNYKTTPPVLDSDGSFFLYSKLTVDKSRWQQGNVFSCSVMHEALHNHYTQKSLSLSPG",Kd,Human CD8a [1],0.148 nM
